Experiment: label from the status in PepcDB records
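Further: failed if final PepcDB status was selected cloned or expressed and not failed if soluble or beyond.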

Sequence	protein production
MTLSITSNFDAGAIDVVSCERADAIRLRVRGDNRSEFAQWFYFRLTGARGERCVMTFENANDCAYPAGWRDYRAVASYDRVNWFRVPTSYDGQMLTIDHTPEFDSIHYAYFEPYSEERHSEFLGAVQQMPQASVVELGRTVEGRPMSLVVLGTPDEAGAAKKKVWIIARQHPGESMAEWFIEGLVKRLVGWGDWSGDPVARKLYDHATFYIVPNMNPDGSVHGNLRTNAAGANLNREWMEPDAERSPEVLVVRDAIHAIGCDLFFDIHGDEDLPYVFAAGSEMLPGFTEQQRVEQSAFIDSFKRASPDFQDEHGYPPGKYREDAFKLASKYIGHRFGCLSLTLEMPFKDNANLPDEHIGWNGARSASLGAAMLGAILEHVRAFA	not failed
MTKFSIIIPTRERVGTLLYTLPACLRVERDDIEFVVCDNYSQDGTADYLKSIQDHRVRIYRTNQRLSMKDNFEHGLARAQGEYICFMGDDDLIIPSLFPLVEKELENVETVCWNRWVYYWPDSYESPNMLIVNNNNFSVILSSSRALDFALRYFLNYQNLPSLYNSFTHRKIVQRVINYNCLNLETEKFYPQDAISPDVFSALQILKFTNSFAHIGLPLTVSGISSSSNGAGVRNNSEESKKFIQELKVEKLSDLLHVSLSALLTQKISYYITNLSDYISFIINYIPETLQEDIFLDLIASGCRTLFDIGDIDADTATQFMAGYDISPWVVNGRLNLMDQGFYTLFRVPMFNRVVINGDEHSLSNSLNASVFLDDYFSSLIY	failed
MHIIQRNPSTNLPEGPYSATSAVKDPSHLPMGHHICFSVPNFDSFLHSLKEKGIETFQKSLPDGKVKQVFFFDPDGNGLEVASRS	failed
MFRSFPVDSPHVYLRWVAISISQPVIRHGSSVVFVGGTPASSFLWPLCINRQNQIQTHFLKSFRIQEFLPRKSQCSRVTTIKETIFYPICLKSSKQIIVNATTFQCINYLLPIQFAYRNEPFRKFFATRIDFSSNQIERTNHSNRI	failed
MLVCAAFSGGAGASDAGALLEAARRGDTAQVASLLERKVEVDAPSADGSTPLLLATANDHLAVARQLIEAGADVNRQNSRLDSPYLLAGAEGRLEILRLTLLHGADLKSTNRYGGTALIPACERGHVEVVKTLLQAGVDPNHVNKLGWTGLLEAILLSDGGPRHQEIVRLLIDAGADVNLADADGVSPLAHARQRGQGGIERLLLAAGAQ	failed
MACHGFLGKPTPKSFGRHHKHARKNRNHQSRCLAAAVAAAGSIFTSLNMSIFTFHNRLLRCVSRFLRLATTSSATPTRRPTMKQGYKKLHKREPLIRRNDKKRTIFLDLDETLVHSTMEPPIRVNVDFMVRIKIEGAVIPMFVVKRPGVTEFLERISKNYRVAIFTAGLPEYASQVLDKLDKNRVISQRLYRDSCTEVNGRYAKDLSLVAKNDLGSVLLVDDNPFSYSLQPDNGVPIKPFMDDMEDQELMKLAEFFDGCYQYEDLRDAAAELLSSKLI	failed
MSSTSKIHAKITGPIVMIGFGSIGKGALPLIERHFEYDKKRFVIIDPHEDGELAKKHGVRFIKQAVTKDNYRELLVPLLTEGGGQGFCVNLSVDTGSVDLMTMCREIGALYIDTVVEPWLGFYFDKNAGPEKRSNYALRETLLAAKAKNPGGTTAVSTCGANPGMVSWFVKQALLDIARDTGLEFNEPKSREGWGQLAQKLGVKGIHIAERDTQRAKTPKPMNVFVNTWSVEGFVSEGLQPAELGWGTHEKWIPDNGRKHTEGCQAAIYLLQPGANTRVRTWCPTPGPQYGFLVTHNESISIADYFTVRDGQNVVYRPTCHYAYHPANDAVLSLHEMFGAEGKMQPKWHILDENEIVDGIDELGVLVYGHAKNAYWYGSQLSIEETREICPYQNATGMQVSSAVLAGMVWALENPEAGIVEADEMDFRRCLEVQKPYLGPVKGYYTDWTPLTDRPGLFPEDIDSSDPWQFKNVLVR	failed
MNENTKVIKGRTGDWEMVLGLEVHAQVASKSKLFSGAAVGFGAGPNEQVSLVDAAMPGMLPVLNRFCVEQAVKTGLGLRAQINLKSRFDRKNYFYPDLPQGYQISQFDQPIVGEGVVSVERDDGTTFDVRIERLHLEQDAGKSLHDQDPNATYVDLNRAGTALMEIVSKPDMRTSEEAAAYVKKLRTILVYLGTCDGDMEKGNLRADVNVSVCRPGDYEKFRATGDFKHLGTRCEIKNVNSYRYIQQAIEYEARRQIEILEDGGKVDQETRLFDPTKGETRSMRSKEEAHDYRYFPDPDLLPLVLDPAWVKSIEETLPELPDAKKARLQSQYGLSAYDAGVLIIDADRADYFEAAAKGRDAKLVANWVTNELLAKLSAAGTEFTNSPLPHTDIAQLVELIENGTISSKIAKEVFEHMWAGEGRPAEIVEKRGLVQINDTGAIEKAIDDLIAGNPDKAEAVKDKPQALGWFVGQVMKATGGKANPGTVNELLRKKLGVE	failed
MKKLLTVTFFTGMLTFFKMISGFIISKIVAIYTGPSGIVLFGQIQSIVSALNGVINSPVGPGIVRFTAENHRKGLEHCYKWWIAGLSWVCIISAIIIPLSITLSSHIAFWTLGSEKYSWVIILTACLLPLTAIGTFISSVINGFQNYKVYVLLGIISAFLSLIIMIALIVFGKINGALLAISVQNALIGGVMIIYASSQPWFNLRWLYGRVHKTYYKDIQRYIVMAITSAIVVPGSLIIVRNIIIHYVGWTEAGYWQAVWKISETYLAIITIALSTYYLPRLSSLSQKDDIIKEISSSLKIIIPLVMFFSMGIYLSRDFIISLLFTKEFLGARMLFQVQLIGDILKIASWLYAYVMISKGMTQLFVISEVLFSLLFISFSLVFIRCYGLIGVTYAYCLNYFIYLVFSVVVVKRAKYD	failed
MTSNERILQPFTLPNGTELKNRLLMAPMTTCTGYFDGTVTSELVEYYRARAGSIGTIIVECCFIDDYGLAFPGAIGIDNDEKIAGLAKIAEAIKAEGSKAILQIYHGGRMVDPQLIGGRQPVAPSAIAAPREGAAMPRALSGEEVEGMIAKFGDGVRRAILAGFDGVEIHGANTYLIQQFYSPNSNQRDDEWGGSRDNRARFPLAVLDITHKMARQYADDAFIIGYRFSPEEMEVPGIRFDDTMYLLEKLAARGVDYLHFSVGATLRPSIVDTSDATPLIEKYCAMRSDTLAQVPVMGVGGVVNAADAEQGLDHGYDLIAVGRACIAYPDWASRIAAGEELELFIDSTQREALHIPEPLWRFSLVEAMIRDMSMGDAKFKPGMFVETVHDDANELVINVSLENDHIADIELAASPVQTVEFTTSFEEIRERILTANTPHVDAISGATSQSEAVKKAVAKAMLKSSKALAAEEGGNDAAPKSYDVVVVGSGGAGLAAAIQAHDEGASVLIVEKMPTIGGNTIKASAGMNAAETRFQRVKGIEDSKELFYQETLKGGHNKNNPQLLRRFVENAPQAIEWLADRGIMLNDITTTGGMSIDRTHRPRDGSAVGGYLISGLVRNITKRGIDVLLDTSVEEILMRGDEVSGVRLINDEKEVIEVQTKSIVVATGGFSANSAMVVKYRPDLEGFVTTNHKGATGSGIALLERIGAGTVDMGEIQIHPTVEQQTSYLISESIRGGGAILVNQQGNRFFNEMETRDKVSAAIIALPEHYACIVFDEHVRAKNKAADEYIAKGFVTSASSPRELAEKLGMDYHAFLATLECYNGAVEKQHDEQFGRTTALRAPINEGPFHAIRIAPGVHHTMGGVTINTDGEVLNVAQQPICGAYAAGEVVGGIHGGNRIGGNAVADIIIFGTLAGHQAAKRARG	failed
VEVIRARRLLDGQASTTGYFDNIEHCIDEEFGQCSITSNDKLLLVGSGAYPMTLIQVAKETGASVIGIDIDPQAVDLGRRIVNVLAPNEDITITDQKVSELKDIKDVTHIIFSSTIPLKYSILEELYDLTNENVVVAM	failed
CAAIAALSAVGLPSDRFSFEGFLPSKSSQRLLQLEKLKDETQTLIFYEAPHRILDCVTDMMHIFGEDRPVGFAREITKTFETIKKMTLKELVSFIQNDHHQQKGEIVLIVGGNPVNK	failed
MNIQLSPLEARVIGCLIEKEVTTPDHYPLTLNSLTTACNQKSNREPVLNLSEAEVQDTVEGLIARRLVSDESSFNSRTSKYQHRFCNTEFGDLKLNQQELGLICCLLLRGAQTPGELRTRTNRLCTFTDVKETEAVLERLANRDSGALVVKLPREPGKRESRYHHLFCGEVDMAA	not failed
MNNPSETSKPSMESGDGNTGTQTNGLDFQKQPVPVGGAISTAQAQAFLGHLHQVQLAGTSLQAAAQSLNVQSKSNEESGDSQQPSQPSQQPSVQAAIPQTQLMLAGGQITGLTLTPAQQQLLLQQAQAQAQLLAAAVQQHSASQQHSAAGATISASAATPMTQIPLSQPIQIAQDLQQLQQLQQQNLNLQQFVLVHPTTNLQPAQFIISQTPQGQQGLLQAQNLLTQLPQQSQANLLQSQPSITLTSQPATPTRTIAATPIQTLPQSQSTPKRIDTPSLEEPSDLEELEQFAKTFKQRRIKLGFTQGDVGLAMGKLYGNDFSQTTISRFEALNLSFKNMCKLKPLLEKWLNDAENLSSDSSLSSPSALNSPGIEGLSRRRKKRTSIETNIRVALEKSFLENQKPTSEEITMIADQLNMEKEVIRVWFCNRRQKEKRINPPSSGGTSSSPIKAIFPSPTSLVATTPSLVTSSAATTLTVSPVLPLTSAAVTNLSVTGTSDTTSNNTATVISTAPPASSAVTSPSLSPSPSASASTSEASSASETSTTQTTSTPLSSPLGTSQVMVTASGLQTAAAAALQGAAQLPANASLAAMAAAAGLNPSLMAPSQFAAGGALLSLNPGTLSGALSPALMSNSTLATIQALASGGSLPITSLDATGNLVFANAGGAPNIVTAPLFLNPQNLSLLTSNPVSLVSAAAASAGNSAPVASLHATSTSAESIQNSLFTVASASGAASTTTTASKAQ	failed
MKTINIVAGGPKNLIPDLTGYTDEHTLWIGVDKGTVTLLDAGIIPVEAFGDFDSITEQERRRIEKAAPALHVYQAEKDQTDLDLALDWALEKQPDIIQIFGITGGRADHFLGNIQLLYKGVKTNIKIRLIDKQNHIQMFPPGEYDIEKDENKRYISFIPFSEDIHELTLTGFKYPLNNCHITLGSTLCISNELIHSRGTFSFAKGILIMIRSTDLEHHHHHH	not failed
MDGHNQNQYQNQNQIQQSQQPPLKKYVTQRRSVDVSSPYINLYYNRRHGLPNLVVEPETSYTIDIMPPNAYRGRDRVINLPSKFTHLSSNKVKHVIPAIQWTPEGRRLVVATYSGEFSLWNASSFTFETLMQAHDSAVTTMKYSHDSDWMISGDADGMIKIWQPNFSMVKEIDAAHTESIRDMAFSSNDSKFVTCSDDNILKIWNFSNGKQERVLSGHHWDVKSCDWHPEMGLIASASKDNLVKLWDPRSGNCISSILKFKHTVLKTRFQPTKGNLLMAISKDKSCRVFDIRYSMKELMCVRDETDYMTLEWHPINESMFTLACYDGSLKHFDLLQNLNEPILTIPYAHDKCITSLSYNPVGHIFATAAKDRTIRFWTRARPIDPNAYDDPTYNNKKINGWFFGINNDINAVREKSEFGAAPPPPATLEPHALPNMNGFINKKPRQEIPGIDSNIKSSTLPGLSI	failed
MNQRDVILDCEKKLLTAIQNNDVESLEVLLHDDLLFIIPSGETVTKETDIAAYSSGKIALRAVVPSDYIIRIIHDTVVVSVNIEIKGEYMEHTLDNTFRYLRVWKLFDGNWKVIAGSCTAIG	not failed
RDIGKESLEKAPEVELVNSAEEGNAVVLDIRSPDEEDESPLEIVGVEVKHLPFYKLATQFGDLDQSKTYLLYCSRGVMSRLQALYLQEQGFNNVKVYR	failed
MCASKRSFFMSNSKFNVRLLTEIAFMAALAFIISLIPNTVYGWIIVEIACIPILILSFRRGLTAGLVGGLIWGILSMITGHAYILTLSQAFLEYLIAPVSLGIAGLFRQKTASLKLVPVLLGTFVAVLLKYFFHFIAGIIFWSQYAWKGWGAVAYSLAVNGISAILTAIAAFVILIIFVKKFPKLFIYSNY	failed
KVSVNDIMVPRNEIVGIDINDDWKSIVRQLTHSPHGRIVLYRDSLDDAISMLRVREAYRLMTEKKEFTKEIMLRAADEIYFVPEGTPLSTQLVKFQRNKKKVGLVVDEYGDIQGLVTVEDILEEIVGDFT	not failed
MICLEKVEDIPRLQELFAQILIVHHQARSDVLKVKGSKFTDKELEGVIGDANKPVFVYEDEAGTILCHLFLIIKEVSENDGPQKPIKTLFIDDLCVEEKARGQKLGEKLYQFALDYATEQECYNATLHVWNDNQGTLDFYEHLGVKPRYTEMKTVLKLEHHHHHH	failed
